Measured values taken from the supplement of paper PMC9112550, “Optimization of the antimicrobial peptide Bac7 by deep mutational scanning” (BMC Biology, 2022).

Test system: Escherichia coli TOP10
Test: shrunken log2 fold change of peptide-encoding DNA abundance (4.5 h post-induction vs induction); higher = less antimicrobial activity (less host growth inhibition)
Conditions: time post-induction: 4.5 h; library: site-saturation at positions 5, 18, 19, 20
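Further: peptides expressed intracellularly from a pBAD plasmid library in pooled LB shake-flask culture, induced with 0.3% L-arabinose, DNA abundance read by NGS, three biological replicates, DESeq2 with apeglm shrinkage.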

Sequence | shrunken log2 fold change
RRIRHRPPRLPRPRPRPEMAPRP | 0.253
RRIRHRPPRLPRPRPRPCVPPRP | -0.00981
RRIRPRPPRLPRPRPRPEYSPRP | -0.117
RRIRLRPPRLPRPRPRPGIFPRP | -0.313
RRIRLRPPRLPRPRPRPKPWPRP | 0.387
RRIRIRPPRLPRPRPRPQEAPRP | 0.0332
RRIRLRPPRLPRPRPRPWMDPRP | 0.0138
RRIRHRPPRLPRPRPRPWGTPRP | -0.44
RRIRMRPPRLPRPRPRPMMNPRP | -0.0818
RRIRHRPPRLPRPRPRPRSVPRP | 0.0714
RRIRTRPPRLPRPRPRPLYWPRP | -0.559
RRIRYRPPRLPRPRPRPVFDPRP | -1.18
RRIRNRPPRLPRPRPRPCYPPRP | -0.318
RRIRWRPPRLPRPRPRPPMPPRP | 0.444
RRIRVRPPRLPRPRPRPGWMPRP | 0.159
RRIRFRPPRLPRPRPRPSTCPRP | -0.262
RRIRGRPPRLPRPRPRPVPNPRP | 0.581
RRIRQRPPRLPRPRPRPTHCPRP | 0.897
RRIRHRPPRLPRPRPRPDNPPRP | -0.0868
RRIRLRPPRLPRPRPRPCEDPRP | 0.00976
RRIRGRPPRLPRPRPRPVDGPRP | 0.587
RRIRERPPRLPRPRPRPTQMPRP | -0.155
RRIRHRPPRLPRPRPRPDDQPRP | -0.0481
RRIRARPPRLPRPRPRPQCGPRP | 0.436
RRIRWRPPRLPRPRPRPQIPPRP | -0.493

Sequence | shrunken log2 fold change
RRIRYRPPRLPRPRPRPKRLPRP | -0.102
RRIRYRPPRLPRPRPRPPQDPRP | -0.362
RRIRGRPPRLPRPRPRPSHKPRP | -0.157
RRIRFRPPRLPRPRPRPTWSPRP | 0.188
RRIRKRPPRLPRPRPRPMLQPRP | 0.122
RRIRQRPPRLPRPRPRPEGWPRP | 0.856
RRIRNRPPRLPRPRPRPIQWPRP | 0.0441
RRIRHRPPRLPRPRPRPTEAPRP | -0.00626
RRIRVRPPRLPRPRPRPPHPPRP | 0.261
RRIRCRPPRLPRPRPRPAMEPRP | 0.111
RRIRGRPPRLPRPRPRPRSHPRP | 0.239
RRIRGRPPRLPRPRPRPKTTPRP | 0.521
RRIRSRPPRLPRPRPRPEHRPRP | -0.00155
RRIRERPPRLPRPRPRPKGNPRP | 0.139
RRIRQRPPRLPRPRPRPTVVPRP | -0.00822
RRIRLRPPRLPRPRPRPEYAPRP | -0.000852
RRIRGRPPRLPRPRPRPVKWPRP | 0.47
RRIRTRPPRLPRPRPRPMRFPRP | 0.00408
RRIRMRPPRLPRPRPRPAQYPRP | 0.377
RRIRWRPPRLPRPRPRPKIYPRP | -0.0902
RRIRYRPPRLPRPRPRPSIEPRP | -1.02
RRIRKRPPRLPRPRPRPLSYPRP | -0.0509
RRIRKRPPRLPRPRPRPTRDPRP | 0.753
RRIRFRPPRLPRPRPRPMIPPRP | 0.00508
RRIRWRPPRLPRPRPRPGNFPRP | -0.149

Sequence | shrunken log2 fold change
RRIRPRPPRLPRPRPRPYIIPRP | -0.455
RRIRCRPPRLPRPRPRPCYYPRP | -1.31
RRIRWRPPRLPRPRPRPKEEPRP | 1.07
RRIRQRPPRLPRPRPRPHSDPRP | 0.0233
RRIRFRPPRLPRPRPRPCMNPRP | 0.0346
RRIRFRPPRLPRPRPRPTRDPRP | 0.613
RRIRGRPPRLPRPRPRPRQEPRP | 0.527
RRIRKRPPRLPRPRPRPSEVPRP | -0.524
RRIRNRPPRLPRPRPRPKHGPRP | 0.0401
RRIRNRPPRLPRPRPRPRHQPRP | -0.038
RRIRKRPPRLPRPRPRPQGSPRP | -0.0103
RRIRSRPPRLPRPRPRPDGQPRP | -0.00208
RRIRVRPPRLPRPRPRPNLFPRP | -0.355
RRIRHRPPRLPRPRPRPVCKPRP | -0.14
RRIRVRPPRLPRPRPRPMIWPRP | -0.179
RRIRMRPPRLPRPRPRPKEWPRP | 0.0859
RRIRDRPPRLPRPRPRPTKEPRP | -0.0917
RRIRDRPPRLPRPRPRPMDIPRP | 0.0403
RRIRGRPPRLPRPRPRPMNEPRP | 0.056
RRIRSRPPRLPRPRPRPWWFPRP | 0.0202
RRIRQRPPRLPRPRPRPPNRPRP | -0.131
RRIRSRPPRLPRPRPRPNTFPRP | -0.0296
RRIRARPPRLPRPRPRPAGRPRP | 0.723
RRIRARPPRLPRPRPRPWMQPRP | -0.152
RRIRVRPPRLPRPRPRPKTNPRP | -0.117

Sequence | shrunken log2 fold change
RRIRDRPPRLPRPRPRPAMPPRP | -0.107
RRIRSRPPRLPRPRPRPQSEPRP | -0.0306
RRIRCRPPRLPRPRPRPQVMPRP | -0.464
RRIRYRPPRLPRPRPRPVQHPRP | -0.247
RRIRSRPPRLPRPRPRPNPNPRP | -0.283
RRIRSRPPRLPRPRPRPQLRPRP | 0.123
RRIRFRPPRLPRPRPRPWCLPRP | -0.17
RRIRHRPPRLPRPRPRPFHNPRP | -0.305
RRIRHRPPRLPRPRPRPNKCPRP | -0.431
RRIRKRPPRLPRPRPRPTHDPRP | -0.101
RRIRTRPPRLPRPRPRPETFPRP | -0.4
RRIRPRPPRLPRPRPRPSLTPRP | -0.22
RRIRKRPPRLPRPRPRPTMYPRP | -0.0949
RRIRNRPPRLPRPRPRPANFPRP | -0.193
RRIRIRPPRLPRPRPRPMTAPRP | -0.2
RRIRERPPRLPRPRPRPTVAPRP | 0.075
RRIRKRPPRLPRPRPRPELNPRP | 2.26
RRIRKRPPRLPRPRPRPYSGPRP | -0.839
RRIRIRPPRLPRPRPRPLFIPRP | -0.525
RRIRHRPPRLPRPRPRPVPWPRP | 0.0803
RRIRKRPPRLPRPRPRPMYCPRP | -0.233
RRIRRRPPRLPRPRPRPGLIPRP | 0.238
RRIRFRPPRLPRPRPRPAWHPRP | 0.259
RRIRDRPPRLPRPRPRPYKFPRP | -0.223
RRIRCRPPRLPRPRPRPDSRPRP | 0.0735

Sequence | shrunken log2 fold change
RRIRRRPPRLPRPRPRPVNGPRP | 0.0578
RRIRYRPPRLPRPRPRPQRKPRP | -0.263
RRIRQRPPRLPRPRPRPLNVPRP | -0.0218
RRIRWRPPRLPRPRPRPMNNPRP | -0.606
RRIRYRPPRLPRPRPRPANGPRP | -0.6
RRIRRRPPRLPRPRPRPKLAPRP | 0.333
RRIRQRPPRLPRPRPRPRNPPRP | 0.375
RRIRSRPPRLPRPRPRPGRTPRP | 0.0636
RRIRGRPPRLPRPRPRPHNHPRP | -0.27
RRIRTRPPRLPRPRPRPYCIPRP | -0.205
RRIRPRPPRLPRPRPRPRDGPRP | 0.694
RRIRSRPPRLPRPRPRPEEGPRP | 0.0515
RRIRHRPPRLPRPRPRPRERPRP | 0.392
RRIRERPPRLPRPRPRPPWEPRP | 0.145
RRIRVRPPRLPRPRPRPYEEPRP | -0.128
RRIRERPPRLPRPRPRPHFAPRP | -0.0634
RRIRCRPPRLPRPRPRPKVYPRP | -0.167
RRIRVRPPRLPRPRPRPLNPPRP | -0.113
RRIRRRPPRLPRPRPRPHREPRP | -0.0451
RRIRWRPPRLPRPRPRPQKVPRP | 0.166
RRIRTRPPRLPRPRPRPDKHPRP | -0.551
RRIRGRPPRLPRPRPRPMPNPRP | -0.0294
RRIRVRPPRLPRPRPRPILTPRP | -0.443
RRIRNRPPRLPRPRPRPFDGPRP | -0.0509
RRIRERPPRLPRPRPRPMFVPRP | -0.285

Sequence | shrunken log2 fold change
RRIRERPPRLPRPRPRPPERPRP | 0.366
RRIRIRPPRLPRPRPRPAPFPRP | 0.271
RRIRMRPPRLPRPRPRPYMLPRP | -0.0122
RRIRERPPRLPRPRPRPQVMPRP | -0.303
RRIRNRPPRLPRPRPRPYMSPRP | -0.019
RRIRERPPRLPRPRPRPSTMPRP | -0.925
RRIRHRPPRLPRPRPRPMVIPRP | -0.0264
RRIRTRPPRLPRPRPRPLQQPRP | -0.0185
RRIRFRPPRLPRPRPRPFLPPRP | -0.208
RRIRCRPPRLPRPRPRPKQNPRP | 0.136
RRIRFRPPRLPRPRPRPSPLPRP | -0.0981
RRIRPRPPRLPRPRPRPLPPPRP | 0.36
RRIRMRPPRLPRPRPRPDPEPRP | 0.769
RRIRMRPPRLPRPRPRPNAYPRP | 0.311
RRIRDRPPRLPRPRPRPMMLPRP | -0.0234
RRIRFRPPRLPRPRPRPNPIPRP | -0.423
RRIRERPPRLPRPRPRPMIGPRP | 0.015
RRIRGRPPRLPRPRPRPTWCPRP | 0.521
RRIRTRPPRLPRPRPRPQVFPRP | -0.0243
RRIRVRPPRLPRPRPRPKTDPRP | -0.202
RRIRWRPPRLPRPRPRPVPTPRP | 0.544
RRIRYRPPRLPRPRPRPTMKPRP | -0.285
RRIRHRPPRLPRPRPRPIKYPRP | -0.194
RRIRFRPPRLPRPRPRPQYLPRP | -0.329
RRIRARPPRLPRPRPRPNEIPRP | -0.179
